# Measurements reported in article PMC2851846 (Oncogene, 2010).
# Experiments:
# [1] = molecular target: T1, pCREB/KIX ternary complex on CRE DNA (pCREB/KIX/CRE) (UniProt P16220-2 1-327; P45481 588-683, phosphoserine at 133 (Ser133)); assay: native gel or EMSA
# [2] = molecular target: T1, pCREB/KIX ternary complex on CRE DNA …; assay: native gel or EMSA; remark: listed apart in the source
# T1 sequence (P16220 whole entry, chain 1 of 2): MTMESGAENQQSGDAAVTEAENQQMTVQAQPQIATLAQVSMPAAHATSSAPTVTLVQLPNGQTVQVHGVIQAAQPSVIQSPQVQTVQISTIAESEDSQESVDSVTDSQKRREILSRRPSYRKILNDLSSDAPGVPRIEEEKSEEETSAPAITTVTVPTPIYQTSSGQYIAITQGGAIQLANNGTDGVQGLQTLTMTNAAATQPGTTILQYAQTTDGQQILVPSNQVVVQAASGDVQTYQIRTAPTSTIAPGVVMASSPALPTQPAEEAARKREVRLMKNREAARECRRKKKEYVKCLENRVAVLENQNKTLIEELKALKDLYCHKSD
# T1 sequence (P45481 588-683, chain 2 of 2): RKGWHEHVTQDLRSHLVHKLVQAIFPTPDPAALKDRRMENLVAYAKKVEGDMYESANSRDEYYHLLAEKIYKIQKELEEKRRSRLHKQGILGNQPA
binder,measurement,setting,value
"HTLV-1 Tax protein, Tax-His6 (natural protein) not shown",apparent Kd on vCRE DNA,[1],2.4 ± 0.1 nM
same,apparent Kd on cyclin D1 CRE DNA,[2],34 ± 5 nM
